For assay [1], the target named is T1, amylin receptor in membranes prepared from the nucleus accumbens portion of the brain (rat) (rat).
T1 construct: whole, on cells; Native tissue membranes
Put plainly: displacement of 125I-rat amylin from rat nucleus accumbens membranes. As to the method: Plate was incubated for 1 hour at room temperature on a shaker. Plate was dried for 1.5 hours at 50° C., then overnight at room temperature.
Receptor binding activity can be expressed, for example in Table 3, as an IC₅₀ value, calculated from the raw data using an iterative curve-fitting program using a 4-parameter logistic equation (PRISM®, GraphPAD Software, La Jolla, Calif.), as known in the art.
In general terms: In a radioligand displacement assay an active substance lowers the binding of a labelled ligand.

Assay [2] deals with T2, human amylin receptor 3 (AMY3) (human, UniProt P30988 25-474; O60896 24-148).
T2 sequence (looked up) 1: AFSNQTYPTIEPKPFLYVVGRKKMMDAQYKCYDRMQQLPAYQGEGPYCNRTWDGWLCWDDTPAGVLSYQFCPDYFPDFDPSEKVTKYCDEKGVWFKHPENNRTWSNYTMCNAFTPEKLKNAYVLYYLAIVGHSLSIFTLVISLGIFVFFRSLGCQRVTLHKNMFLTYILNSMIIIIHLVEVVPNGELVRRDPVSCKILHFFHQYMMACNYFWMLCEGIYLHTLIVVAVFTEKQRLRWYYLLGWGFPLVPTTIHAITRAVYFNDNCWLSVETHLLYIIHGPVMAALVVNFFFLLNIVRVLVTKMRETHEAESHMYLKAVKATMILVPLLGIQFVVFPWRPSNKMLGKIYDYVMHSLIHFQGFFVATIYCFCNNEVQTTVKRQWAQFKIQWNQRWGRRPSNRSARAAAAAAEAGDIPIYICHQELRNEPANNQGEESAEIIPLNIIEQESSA
T2 sequence (looked up) 2: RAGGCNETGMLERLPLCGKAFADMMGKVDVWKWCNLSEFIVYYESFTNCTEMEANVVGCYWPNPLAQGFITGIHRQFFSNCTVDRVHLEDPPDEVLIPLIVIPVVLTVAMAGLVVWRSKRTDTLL
Put plainly: cell-based or functional assay.

Assay [3] has as its target T2, human amylin receptor 3 (AMY3). Description: displacement of 125I-rat amylin from crude membranes of HEK293 cells expressing human AMY3 (hCalcR + RAMP3). As to the method: The crude membranes were incubated with 20 pM ¹²⁵I. (Perkin Elmer Cat#NEX4480) (2000 Ci/mmol) and increasing concentration of test peptide. […] The Unifilter® plates were washed several times using ice cold PBS using a MicroMate 96 Cell Harvester (Perkin Elmer).
The potency (IC₅₀) of test peptide was determined by the analysis of a concentration-response curve using non-linear regression analysis fitted to a 4-parameter curve. Binding affinities were calculated using GraphPad Prism® software (GraphPad Software, Inc., San Diego, Calif.).

No end group written: not given here.

The values below come from patent US20140221287A1 (AstraZeneca / MedImmune, published 2014).

In general, IC50 refers to the concentration at which inhibition is half-maximal. In assay [1], KCNTATCATQRLANFLVRSSNNLGPVLPPTNVGSNTY-NH2 (ends and bridges not checked, also called Compound 1) [Cmpd 1] displayed a half-inhibitory concentration (IC50) of 0.1 nM.

Turning to CNTATCATQRLANFLVHSSNNFGPK(Y‑shaped‑mPEG40KD)LPPTNVGSNTY-NH2 (ends and bridges not checked, also called Compound 31) [Cmpd 31, [K^26(Y-shaped-mPEG40KD)]-Cmpd 12], the “EC50 (nM), cAMP accumulation (HTRF)” value in assay [2] was determined as 2.56 nM. For the same molecule, the IC50 in assay [1] is 132 nM; in assay [3], 1130 nM.

As for CNTATCATQRLANFLVHSSNNFGPK(mPEG40KD)LPPTNVGSNTY-NH2 (ends and bridges not checked, also called Compound 29) [Cmpd 29, [K^26(mPEG40KD)]-Cmpd 12], the “EC50 (nM), cAMP accumulation (HTRF)” value in assay [2] was found to be 0.114 nM. The results for the IC50 in assay [1] and in assay [3] were 39 nM and 60 nM, respectively.

As for CNTATCATQRLANFLVHSSNNFGPILK(mPEG40KD)PTNVGSNTY-NH2 (ends and bridges not checked, also called Compound 35) [Cmpd 35, [K^28(mPEG40KD)]-Cmpd 17], the “EC50 (nM), cAMP accumulation (HTRF)” value in assay [2] was 0.295 nM. Further, the IC50 in assay [1] was 53 nM; in assay [3], 46 nM.

CNTATCATQRLANFLVHSSNNFGPILPPTNVGSK(mPEG40KD)TY-NH2 (ends and bridges not checked, also called Compound 42) [Cmpd 42, [K^35(mPEG40KD)]-Cmpd 39]: in assay [2], the “EC50 (nM), cAMP accumulation (HTRF)” value was found to be 0.122 nM. Also, the IC50 in assay [3] was 143 nM.

As for CNTATCATQRLANFLVHSSNNFK(mPEG40KD)PILPPTNVGSNTY-NH2 (ends and bridges not checked, also called Compound 32) [Cmpd 32, [K^24(mPEG40KD)]-Cmpd 14], the “EC50 (nM), cAMP accumulation (HTRF)” value in assay [2] amounted to 0.598 nM. In addition, the half-inhibitory concentration (IC50) in assay [1] is 79 nM; in assay [3], 111 nM.

As to CNTATCATQRLANFLVHSSK(mPEG40KD)NFGPILPPTNVGSNTY-NH2 (ends and bridges not checked, also called Compound 28) [Cmpd 28, [K^21(mPEG40KD)]-Cmpd 11], in assay [2], the “EC50 (nM), cAMP accumulation (HTRF)” value worked out at 2.58 nM. For the same molecule, the IC50 is 131 nM in assay [1] and 388 nM in assay [3].

As to CNTATCATQRLANFLVHSSNNFGK(mPEG40KD)ILPPTNVGSNTY-NH2 (ends and bridges not checked, also called Compound 33) [Cmpd 33, [K^25(mPEG40KD)]-Cmpd 15], the “EC50 (nM), cAMP accumulation (HTRF)” value in assay [2] amounted to 0.126 nM. The IC50 is 31 nM in assay [1] and 48 nM in assay [3].

On to CNTATCATQRLANFLVHSSNNFGPIK(mPEG40KD)PPTNVGSNTY-NH2 (ends and bridges not checked, also called Compound 34) [Cmpd 34, [K^27(mPEG40KD)]-Cmpd 16], for which the “EC50 (nM), cAMP accumulation (HTRF)” value in assay [2] is 0.296 nM. Moreover, the IC50 is 51 nM in assay [1] and 87 nM in assay [3].

Regarding CNTATCATQRLANFLVHSSNNFGPILPPTK(mPEG40KD)VGSNTY-NH2 (ends and bridges not checked, also called Compound 30) [Cmpd 30, [K^31(mPEG40KD)]-Cmpd 13], the “EC50 (nM), cAMP accumulation (HTRF)” value in assay [2] was found to be 0.145 nM. Further, the IC50 was 61 nM in assay [1] and 80 nM in assay [3].

For CNTATCATQRLANFLVHSSNNFGPILPPTNVGK(mPEG40KD)NTY-NH2 (ends and bridges not checked, also called Compound 41) [Cmpd 41, [K^34(mPEG40KD)]-Cmpd 38], the “EC50 (nM), cAMP accumulation (HTRF)” value in assay [2] is 0.034 nM. Also, the IC50 in assay [3] is 77 nM.

Consider CNTATCATQRLANFLVHSSNNFGPILPK(mPEG40KD)TNVGSNTY-NH2 (ends and bridges not checked, also called Compound 36) [Cmpd 36, [K^29(mPEG40KD)]-Cmpd 18], for which, in assay [2], the “EC50 (nM), cAMP accumulation (HTRF)” value came out at 0.159 nM. In addition, the IC50 in assay [1] was 27 nM; in assay [3], 47 nM.

Consider CNTATCATQRLANFLVK(mPEG40KD)SSNNFGPILPPTNVGSNTY-NH2 (ends and bridges not checked, also called Compound 40) [Cmpd 40, [K^18(mPEG40KD)]-Cmpd 37], for which the “EC50 (nM), cAMP accumulation (HTRF)” value in assay [2] turned out to be 0.85 nM. The half-maximal inhibitory concentration (IC50) in assay [3] is 238 nM.
